Assay results as given in US20090155256A1 (Pfizer, published 2009).

B1: Humanized 3D6 2m (FcγR), human IgG1 L234A/G237A (EU numbering) (antibody)
heavy: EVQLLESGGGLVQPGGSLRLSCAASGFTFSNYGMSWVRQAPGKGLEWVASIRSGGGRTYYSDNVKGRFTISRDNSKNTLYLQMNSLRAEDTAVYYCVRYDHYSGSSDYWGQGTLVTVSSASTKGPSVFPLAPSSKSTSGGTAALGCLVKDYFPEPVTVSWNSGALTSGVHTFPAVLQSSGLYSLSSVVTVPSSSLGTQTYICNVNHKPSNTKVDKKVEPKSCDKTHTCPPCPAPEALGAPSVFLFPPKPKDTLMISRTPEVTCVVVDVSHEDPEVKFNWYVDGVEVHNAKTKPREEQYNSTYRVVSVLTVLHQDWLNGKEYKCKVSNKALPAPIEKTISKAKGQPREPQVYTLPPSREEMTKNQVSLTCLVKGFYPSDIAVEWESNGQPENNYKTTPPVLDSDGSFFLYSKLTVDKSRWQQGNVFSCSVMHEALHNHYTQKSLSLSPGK
light: DVVMTQSPLSLPVTPGEPASISCKSSQSLLDSDGKTYLNWLLQKPGQSPQRLIYLVSKLDSGVPDRFSGSGSGTDFTLKISRVEAEDVGVYYCWQGTHFPRTFGQGTKVEIKRTVAAPSVFIFPPSDEQLKSGTASVVCLLNNFYPREAKVQWKVDNALQSGNSQESVTEQDSKDSTYSLSSTLTLSKADYEKHKVYACEVTHQGLSSPVTKSFNRGEC
notes: also called Hu 3D6 2 m; Hu 3D6 2 m IgG1
B2: Humanized 3D6 1m (hinge region), human IgG4 S241P (Kabat numbering) (antibody)
heavy: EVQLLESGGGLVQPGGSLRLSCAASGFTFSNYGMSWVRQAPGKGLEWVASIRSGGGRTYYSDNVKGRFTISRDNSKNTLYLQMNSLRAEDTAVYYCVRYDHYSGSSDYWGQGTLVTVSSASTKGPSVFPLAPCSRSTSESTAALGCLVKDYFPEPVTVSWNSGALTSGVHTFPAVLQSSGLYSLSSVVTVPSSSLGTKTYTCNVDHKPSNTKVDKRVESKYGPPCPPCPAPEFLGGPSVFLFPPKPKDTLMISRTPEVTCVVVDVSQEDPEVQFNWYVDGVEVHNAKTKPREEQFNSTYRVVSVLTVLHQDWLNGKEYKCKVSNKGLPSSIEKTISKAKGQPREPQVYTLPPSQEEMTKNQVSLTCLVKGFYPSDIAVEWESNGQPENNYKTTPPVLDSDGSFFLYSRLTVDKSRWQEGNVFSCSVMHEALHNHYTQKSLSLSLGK
light: B1 light
notes: also called Hu 3D6 1m IgG4; IgG4 isotype
B3: Humanized 3D6 3m (FcγR) AAB-003, human IgG1 L234A/L235A/G237A (EU numbering) (antibody)
heavy: EVQLLESGGGLVQPGGSLRLSCAASGFTFSNYGMSWVRQAPGKGLEWVASIRSGGGRTYYSDNVKGRFTISRDNSKNTLYLQMNSLRAEDTAVYYCVRYDHYSGSSDYWGQGTLVTVSSASTKGPSVFPLAPSSKSTSGGTAALGCLVKDYFPEPVTVSWNSGALTSGVHTFPAVLQSSGLYSLSSVVTVPSSSLGTQTYICNVNHKPSNTKVDKKVEPKSCDKTHTCPPCPAPEAAGAPSVFLFPPKPKDTLMISRTPEVTCVVVDVSHEDPEVKFNWYVDGVEVHNAKTKPREEQYNSTYRVVSVLTVLHQDWLNGKEYKCKVSNKALPAPIEKTISKAKGQPREPQVYTLPPSREEMTKNQVSLTCLVKGFYPSDIAVEWESNGQPENNYKTTPPVLDSDGSFFLYSKLTVDKSRWQQGNVFSCSVMHEALHNHYTQKSLSLSPGK
light: B1 light
notes: also called Hu 3D6 3 m; Hu 3D6 3 m IgG1
B4: Bapineuzumab (humanized 3D6, human IgG1, no Fc mutations) (antibody)
heavy: not shown
light: B1 light
notes: also called AAB-001; Bapineuzumab Control

Molecular target: Purified human C1q (191391, MP Biomedicals) (human, UniProt P02745 23-245; P02746 28-253; P02747 29-245)
Assay: ELISA: Aβ-coated plate, antibody, purified human C1q, FITC anti-C1q

Purified human C1q (191391, MP Biomedicals), sequence (P02745 23-245 limits assumed, chain 1 of 3): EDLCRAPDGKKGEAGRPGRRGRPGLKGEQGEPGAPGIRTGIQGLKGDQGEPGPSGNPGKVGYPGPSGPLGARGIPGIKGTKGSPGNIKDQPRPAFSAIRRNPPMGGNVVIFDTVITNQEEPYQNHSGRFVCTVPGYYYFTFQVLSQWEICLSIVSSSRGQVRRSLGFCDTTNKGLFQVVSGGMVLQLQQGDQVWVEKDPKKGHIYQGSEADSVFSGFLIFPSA
Purified human C1q (191391, MP Biomedicals), sequence (P02746 28-253 limits assumed, chain 2 of 3): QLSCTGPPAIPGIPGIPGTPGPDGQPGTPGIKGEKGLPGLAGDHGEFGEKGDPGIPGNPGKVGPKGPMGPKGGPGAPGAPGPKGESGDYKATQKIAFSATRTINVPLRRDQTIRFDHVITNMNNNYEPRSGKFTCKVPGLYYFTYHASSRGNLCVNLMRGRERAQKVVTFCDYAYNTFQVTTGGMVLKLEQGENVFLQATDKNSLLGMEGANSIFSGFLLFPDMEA
Purified human C1q (191391, MP Biomedicals), sequence (P02747 29-245 limits assumed, chain 3 of 3): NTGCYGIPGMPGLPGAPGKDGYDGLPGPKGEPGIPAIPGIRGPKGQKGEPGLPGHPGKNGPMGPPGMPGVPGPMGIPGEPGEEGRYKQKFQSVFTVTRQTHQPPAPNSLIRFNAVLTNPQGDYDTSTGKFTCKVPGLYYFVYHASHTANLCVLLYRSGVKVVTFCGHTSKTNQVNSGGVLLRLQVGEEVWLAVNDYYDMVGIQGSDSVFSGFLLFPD

Row | Binder | binding result
1 | B1 | no binding
2 | B2 | no binding
3 | B3 | no binding

Molecular target: T1, His-tagged domains of human FcγRI (R&D Systems, Cat # 1257-Fc) (human, UniProt P12314 16-288)
T1 construct: Bought construct; not shown: His tag
Assay: SPR (Biacore 3000), His-tagged receptor captured by penta-His antibody

T1 sequence (P12314 16-288 limits assumed): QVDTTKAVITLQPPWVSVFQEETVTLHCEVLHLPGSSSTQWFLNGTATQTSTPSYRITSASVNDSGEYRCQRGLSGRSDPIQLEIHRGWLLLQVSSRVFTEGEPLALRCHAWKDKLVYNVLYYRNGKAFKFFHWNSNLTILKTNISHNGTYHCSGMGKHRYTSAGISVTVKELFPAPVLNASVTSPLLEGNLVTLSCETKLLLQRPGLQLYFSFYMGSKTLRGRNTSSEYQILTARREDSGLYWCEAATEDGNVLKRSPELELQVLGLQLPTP

Row | Binder | binding result
4 | B1 | no binding
5 | B2 | binds
6 | B3 | no binding

Molecular target: T2, His-tagged domains of human FcγRIII (R&D Systems, Cat # 1597-Fc) (human, UniProt O75015 17-200, limits assumed)
T2 construct: not shown: His tag
Assay: as above

T2 sequence (O75015 17-200 limits assumed): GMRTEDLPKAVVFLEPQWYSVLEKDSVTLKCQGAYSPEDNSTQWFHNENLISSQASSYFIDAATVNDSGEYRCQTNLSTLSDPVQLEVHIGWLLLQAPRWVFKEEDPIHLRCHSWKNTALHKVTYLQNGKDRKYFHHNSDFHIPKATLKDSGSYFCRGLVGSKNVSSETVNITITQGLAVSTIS

Row | Binder | binding result
7 | B1 | no binding
8 | B2 | no binding
9 | B3 | no binding

Molecular target: T1, His-tagged domains of human FcγRI (R&D …)
Assay: SPR (Biacore 3000), His-tagged receptor captured by penta-His antibody on CM5 chip, antibody injected; RU relative to control

Row | Binder | Relative Binding Capability (%)
10 | B1 | 0
11 | B4 | 100
12 | B3 | 0

Molecular target: T2, His-tagged domains of human FcγRIII …
Assay: as above

Row | Binder | Relative Binding Capability (%)
13 | B1 | 0
14 | B2 | 0
15 | B4 | 100
16 | B3 | 0
